The source of these data is patent publication US20200247893A1 (CITY OF HOPE, published 2020).

For assay [1], the target named is T1, recombinant human IL1RAP protein (human, UniProt Q9NPH3 21-359, limits assumed).
T1 construct: also called recombinant IL1RAP protein; Interleukin-1 receptor accessory protein
Nature of the assay: SPR, Biacore T100. In general terms: In SPR one partner is held on a chip, and binding of the other changes the refractive index at the surface.

The target of assay [2] is T1, recombinant human IL1RAP protein. Nature of the assay: method not given.
Assay [3] has the same target. Nature of the assay: ELISA; 1 µg/ml recombinant IL1RAP coated; antibody in three-fold dilutions from 1 µg/ml; HRP-anti-human FC detection. A general note: ELISA stands for enzyme-linked immunosorbent assay.
Protocol: Purified antibodies in three-fold serial dilution starting from 1 μg/ml are added to each well. HRP-anti-human FC antibody is used as detection antibody.
A further assay has as its target T2, CD3 on T cells (Homo sapiens (Human), UniProt P07766 23-207; P04234 22-171; P09693 23-182; P20963 22-164).
T2 construct: also called T cell co-receptor CD3
As to the kind of experiment: flow cytometry: T cells incubated with 1D5 in place of the bispecific antibody, then his-tagged recombinant IL1RAP, detection with FITC-anti-his antibody.

Assay [4] addresses T1, recombinant human IL1RAP protein. Nature of the assay: ELISA: recombinant IL1RAP protein coated at 1 ug/ml, purified IgG in three-fold serial dilution, HRP-anti-human FC detection, OD450.

T1 sequence (Q9NPH3 21-359 limits assumed): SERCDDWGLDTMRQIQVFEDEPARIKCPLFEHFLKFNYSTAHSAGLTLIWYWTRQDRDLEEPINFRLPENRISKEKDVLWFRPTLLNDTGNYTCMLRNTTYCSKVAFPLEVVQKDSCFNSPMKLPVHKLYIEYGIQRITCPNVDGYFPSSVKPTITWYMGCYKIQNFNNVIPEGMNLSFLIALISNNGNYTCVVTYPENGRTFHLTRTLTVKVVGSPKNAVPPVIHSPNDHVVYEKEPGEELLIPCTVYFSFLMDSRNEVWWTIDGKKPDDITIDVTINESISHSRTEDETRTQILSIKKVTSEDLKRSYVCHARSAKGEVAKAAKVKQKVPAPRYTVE
T2 sequence (P07766 23-207 limits assumed, chain 1 of 4): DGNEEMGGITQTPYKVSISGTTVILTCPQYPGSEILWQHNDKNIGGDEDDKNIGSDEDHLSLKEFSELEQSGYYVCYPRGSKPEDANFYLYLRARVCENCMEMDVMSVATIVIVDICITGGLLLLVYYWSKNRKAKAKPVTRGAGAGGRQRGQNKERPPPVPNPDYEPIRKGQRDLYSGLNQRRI
T2 sequence (P04234 22-171 limits assumed, chain 2 of 4): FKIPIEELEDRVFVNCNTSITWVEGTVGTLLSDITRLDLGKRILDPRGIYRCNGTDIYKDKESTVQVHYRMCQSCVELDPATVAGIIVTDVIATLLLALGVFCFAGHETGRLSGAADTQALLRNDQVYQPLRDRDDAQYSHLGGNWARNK
T2 sequence (P09693 23-182 limits assumed, chain 3 of 4): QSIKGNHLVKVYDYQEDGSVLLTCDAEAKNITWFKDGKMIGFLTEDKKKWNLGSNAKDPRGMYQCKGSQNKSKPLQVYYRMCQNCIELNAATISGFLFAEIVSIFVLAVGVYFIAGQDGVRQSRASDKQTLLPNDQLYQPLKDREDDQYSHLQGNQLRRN
T2 sequence (P20963 22-164 limits assumed, chain 4 of 4): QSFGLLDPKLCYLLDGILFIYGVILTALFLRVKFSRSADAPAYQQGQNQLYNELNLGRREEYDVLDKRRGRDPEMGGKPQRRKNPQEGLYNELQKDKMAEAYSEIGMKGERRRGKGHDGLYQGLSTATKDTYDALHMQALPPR

B1: human monoclonal antibody 1D5 (anti-IL1RAP) (antibody, V domains shown)
VH: QVQLVQSGAEVKKPGESLKISCKGSGYSFSSHWIGWVRQMPGKGLEWMGIIYPGDSDTRYSPSFQGQVTISADKSISTAYLQWSSLKASDTAMYYCARGELPGEAYYFDNWGQGTLVTVSS
VL: not shown
notes: also called clone ID5
Regarding B1, the Kd (in general, the equilibrium constant for the complex coming apart) was 21.2 nM in assay [1] and around 20 nM in assay [2]. In addition, the EC50 (commonly the concentration at which the effect is half-maximal) in assay [3] came out at 0.0049 µg/mL. The binding result in the assay with CD3 on T cells is “no binding”.

B2: 2E12 (antibody, V domains shown)
VH: GGGLVQPGGSLRLSCEASGFTFSRYWMHWVRQAPGKGLVWVSRIHTDGSSISYADSVKGRFTISRDNAKNTLYLQMNSLRAEDTAVYYCARDIGGGYSYGSVDYWGQGTLVTVSS
VL: QPVLTQSPSVSVAPGKTTRITCGGDNIGSKSVHWFQQKPGQAPVLVVFGGGDRPSGIPERFSGSNSGNTATLIISGVEGGDEADYYCQVWDGSTDHYIFGAGTMVTVL
With B2, the concentration giving a half-maximal response (EC50 (read off the curve)) (in general, the midpoint of the concentration-response curve) in assay [4] is around 0.09 µg/mL.

B3: D1A4 (antibody, V domains shown)
VH: PGPLVQSGAEVKKPGASVKVSCTTSGFPFNMYGFNWVRQAPGQGLEWMGWISAYNGRTNYAQKFQGRVTMTTDTSTSTSYVELESLTSDDTAVYYCARSGKQQLGSAQPLDSWGQGTLIIVSS
VL: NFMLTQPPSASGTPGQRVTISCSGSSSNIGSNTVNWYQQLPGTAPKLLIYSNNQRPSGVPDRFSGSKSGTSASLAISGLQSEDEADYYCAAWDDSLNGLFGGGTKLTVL
B3: the “EC50 (read off the curve)” value in assay [4] was around 0.1 µg/mL.
